In US20120207760A1:

Key:
Conditions in all cases: remark: other sources report otherwise
[1] = target: T1, recombinant homotrimeric HA, A/duck/Yangzhou/02/05 H8N4 (Influenza A virus A/duck/Yangzhou/02/2005 (H8N4)); assay: trimeric HA microarray, transfection set 2
[2] = target: recombinant homotrimeric HA, A/Netherlands/219/03 H7N7 (Influenza A virus A/Netherlands/219/03 (H7N7)); assay: trimeric HA microarray, transfection set 2
[3] = target: recombinant homotrimeric HA, A/Anhui/1/05 H5N1 (Influenza A virus A/Anhui/1/05 (H5N1)); assay: trimeric HA microarray, transfection set 2
[4] = target: T2, recombinant homotrimeric HA, A/Wisconsin/67/05 H3N2 (Influenza A virus A/Wisconsin/67/05 (H3N2)); assay: trimeric HA microarray, transfection set 2
[5] = target: T2, recombinant homotrimeric HA, …; assay: trimeric HA microarray, transfection set 4
[6] = target: recombinant soluble homotrimeric HA of A/Hong Kong/2108/03 - H9N2 (Influenza A virus A/HK/2108/2003 (H9N2)); assay: micro-array; captured IgG, V5-tagged trimeric HA
[7] = target: T1, recombinant homotrimeric HA, …; assay: trimeric HA microarray, transfection set 3
[8] = target: T2, recombinant homotrimeric HA, …; assay: trimeric HA microarray, transfection set 3
[9] = target: T3, recombinant homotrimeric HA, A/Hong Kong/1073/99 H9N2 (Influenza A virus A/Hong Kong/1073/99 (H9N2)); assay: trimeric HA microarray, transfection set 2
[10] = target: recombinant homotrimeric HA, A/northern shoveler/California/HKWF115/07 (Influenza A virus A/northern shoveler/California/HKWF115/2007 (H6N1)); assay: trimeric HA microarray, transfection set 2
[11] = target: T3, recombinant homotrimeric HA, A/Hong …; assay: trimeric HA microarray, transfection set 3

B1: TCN-504 (3251_K17) (antibody, V domains shown)
VH: QVQLQESGPGLVKPSETLSLTCAVSGVSISNIDFYWGWIRQPPGKGLEWIGNIYYTGITFYNPSLSSRVAISIDTSKNQFSLTLTSVTAADTAMYYCARHYGDSEAINDAFDIWGQGTMLTVSS
VL: EIVMTQSPATLSVSPGERATLSCRASQSVGNSLAWYQQRPGQAPRLLIYGASTRATGIPPRFSGSGSGTEFTLTISSLQTEDFAVYYCQQYINWRPLSFGGGTKVEIK
B1 gave a Trimeric HA Binding RLU [1] of 17800 RLU, a Trimeric HA Binding RLU [2] of 19300 RLU and a Trimeric HA Binding RLU [3] of 31000 RLU. It also gave a Trimeric HA Binding RLU [4] of 21600 RLU, a Trimeric HA Binding RLU [5] of 20600 RLU and a Trimeric HA Binding: RLU [6] of 7 RLU. For the same binder, the Trimeric HA Binding RLU [7] was 19600 RLU and the Trimeric HA Binding RLU [8] was 21400 RLU.

B2: TCN-523 (5248_A17) (antibody, V domains shown)
VH: QVQLVQSGAEVKKPGSSVKVSCKASGGSFSNYAFSWVRQAPGQGLEWMGGTIPLLGTTNYAQKFQGRVTISADQFTSTAYMELGSLRSEDTAVYYCTRRKMTTAFDSWGQGTLVTVSS
VL: QPVLTQPPSASASLGASVTLTCTLSSAYSNYKVDWYQQRPGKGPRFVMRVGTGGIVGSKGDGIPDRFSVLGSGLNRYLTIKNIQEEDESDYHCGADHGSGSNFVSPYVFGGGTKLTVL
B2 showed a Trimeric HA Binding RLU [9] of 31300 RLU, a Trimeric HA Binding RLU [10] of 21200 RLU and a Trimeric HA Binding RLU [11] of 24200 RLU.
